US20250243285A1 (Novartis, published 2025)
Changes are numbered by the printed parent chain. One block for each binder: values may come before it.

Experiments:
[1] = target: Folate receptor alpha on cells (SKOV3, A1847, T47D; low levels on 293T and IOSE 6) (human, UniProt P15328 25-234); assay: cell-based or functional assay
[2] = target: T1, EGFR on cells (A431; tumor cell lines; K562 cells electroporated with EGFR mRNA) (UniProt P00533 25-1210, limits assumed); assay: affinity of the scFv printed above the panel (legend paragraph 89; called KD, nM in paragraph 90); method and form of EGFR not given in the filing, text cites Zhou et al. 2007
T1 construct: whole, on cells; also called epidermal growth factor receptor

Chain of Folate receptor alpha on cells (SKOV3, A1847, T47D; low levels on 293T and IOSE 6) (P15328 25-234, stated change not applied): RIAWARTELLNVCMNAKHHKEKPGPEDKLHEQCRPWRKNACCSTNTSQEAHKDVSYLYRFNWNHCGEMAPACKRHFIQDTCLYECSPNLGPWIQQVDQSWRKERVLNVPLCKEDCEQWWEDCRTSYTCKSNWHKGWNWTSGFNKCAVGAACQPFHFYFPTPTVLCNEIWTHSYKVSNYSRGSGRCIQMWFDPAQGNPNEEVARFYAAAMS

B2: C10 (scFv)
scFv: EVQLVQSGAEVKKPGSSVKVSCKASGGTFSSYAISWVRQAPGQGLEWMGGIIPIFGTANYAQKFQGRVTITADESTSTAYMELSSLRSEDTAVYYCAREEGPYCSSTSCYGAFDIWGQGTLVTVSSGGGGSGGGGSGGGGSQSVLTQDPAVSVALGQTVKITCQGDSLRSYFASWYQQKPGQAPTLVMYARNDRPAGVPDRFSGSKSGTSASLAISGLQSEDEADYYCAAWDDSLNGYLFGAGTKLTVL
notes: The CAR built from it is m23; also called C10 scFv (anti-EGFR, parental)
Kd [2]: 264 nM

B3: P2-4 (scFv)
scFv: B2 scFv with G111A, V151A
notes: The CAR built from it is m21; also called P2-4 scFv (anti-EGFR)
Kd [2]: 15.4 nM

Second part, the binder after the results:

CAR expression kept after overnight co-culture with SKOV3 cells at the lowest E:T ratio [1]: ~50 % of initial CAR expression
frequency of CAR T cells expressing IFN-γ after incubation with FRAPOS SKOV3 cells, fold over MOv19 CAR T cells [1]: 5.6 fold
frequency of CAR T cells expressing IL-2 after incubation with FRAPOS SKOV3 cells, fold over MOv19 CAR T cells [1]: 9 fold
frequency of CAR T cells expressing TNF-α after incubation with FRAPOS SKOV3 cells, fold over MOv19 CAR T cells [1]: 6.1 fold
B1: C4-27z CAR (fully human anti-FRA C4 scFv linked to CD27 and CD3z signaling domains), on primary human T cells (other, not shown: large carriers)
chain: QLVESGGGLVQPGRSLRLSCTTSGFTFGDYAMIWARQAPGKGLEWVSSISSSSSYIYYADSVKGRFTISRDNAKNSLYLQMNSLRAEDTAVYYCARERYDFWSGMDVWGKGTTVTVSSGGGGSGGGGSGGSAQSALTQPASVSGSPGQSITISCTGTSSDVGSYNLVSWYQQHPGKAPKLMIYEGSKRPSGVSNRFSGSKSGNAASLTISGLQAEDEADYYCQSYDSSLSVVFGGGTKLTVLG

Kd [2]: 88.2 nM
B4: P3-5 (scFv)
scFv: B2 scFv with M48V, T69K, T76A, F172L, M188T
notes: The CAR built from it is m22; also called P3-5 scFv (anti-EGFR)
